# Experimental data: article PMC9814550, “Exo-selective intermolecular Diels–Alder reaction by PyrI4 and AbnU on non-natural substrates” (Communications Chemistry, 2021)
# B1: AbnU (Parafrankia colletiae) (protein)
# chain: MSVVHEGIWEPQIRNEQNVNVADPQVGQIGSYYDELYDSSRELLGITIGRYEIRYKKVGGAVLTYYSEDLFLRDGIIHAEGWADFNDVKNGVWVGYPAVGLDGVYRGLDGRREWRVIEPDQPVEARISLHG
# notes: N-terminal poly-His tag, pET28a(+), codon-optimised synthetic gene, E. coli; dimer
# B2: PyrI4 (Streptomyces rugosporus) (protein)
# chain: MTTPQIDERAMEAGAAALQETIVDPGPLDVTALAVAAALAAGLHSAADDPAAALDKCIVLDELTEFAEKLVVHDRPGGIGTTVEYVEVYEDASGVRLGTATGNAVVLKMEPHMWQFHQSVSELADGSFEAVGVIDCTAMLRRMTQVLRVTGRSGRYAGKSGFMTLAISDPNQRPPHYSVQVVLC
# notes: full length, N-terminal poly-His tag, pET28a(+), codon-optimised synthetic gene, E. coli
# Columns and labels:
# Experiment in all cases: intermolecular Diels-Alder kinetics
# [1] = substrate: C=C/C=C/NC(=O)OCc1ccc(C(=O)OC)cc1; format: biochemical, Parafrankia colletiae; settings: co-substrate 2, PBS pH 7.4, 37 °C
# Source text: intermolecular Diels-Alder kinetics on AbnU
# [2] = substrate: C=CC(=O)N(C)C; format: biochemical, Streptomyces rugosporus; settings: co-substrate 1a, PBS pH 7.4, 37 °C
# Source text: (§1) intermolecular Diels-Alder kinetics on PyrI4
# [3] = substrate: C=C/C=C/NC(=O)OCc1ccc(C(=O)OC)cc1; format: biochemical, Streptomyces rugosporus; settings: co-substrate 2, PBS pH 7.4, 37 °C
# Source text: as §1
Protein,Km [1],kcat [1],Km [2],kcat [2],Km [3],kcat [3]
B1,200 ± 10 µM,1.17e-05 ± 2.8e-07 s⁻¹,,,,
B2,,,100000 ± 1250 µM,6.39e-06 ± 5.6e-07 s⁻¹,200 ± 10 µM,6.39e-06 ± 5.6e-07 s⁻¹
